Laboratory results: publication PMC10021056 (Nature Communications, 2023)

B1: Fab 2D3 (Fab, V domains shown)
VH: QVQLKQSGPGLVAPSQSLSITCTVSGFSLTSYALSWVRQPPGKGLEWLGVIWVGGVTNYNSALKSRLTISKDNSKSQVFLKMNSLQSEDTARYYCASRHLSTGAMDYWGQGTSVTVSA
VL: DVLMTQSPLSLPVSLGDQASISCRSSQSIVHSNGDTYFEWYLQKPGQSPKLLIYKVSNRFSGVPNRFSGSGSGTDFTLKISRVEAEDLGVYYCFQGSYVPYTFGGGTKLEIK
notes: recombinant Fab of m5
B2: Fab 1H8 (Fab, V domains shown)
VH: EVQLQQSGPELVKPGASVKISCKASGYSFTGYTMNWVKQSHGKNLEWIGLINPFIGGTRYNQKFKGKATLTVDKSSRTAYMELLSLTSEDSAVYYCAREADYDWYFDVWGAGTTVTVSS
VL: DIQMTQTTSSLSASLGDRVTISCRASQDISNYLHWYQQKPDGTVNLLIFYTSRLHSGVPSRFSGSGSGTDYSLTISNLEQEDIATYFCQQGNTLPRTFGGGTKLEIK
notes: recombinant Fab of m6
B3: Fab 1H1 (Fab, V domains shown)
VH: VQLQQSGAELMRPGASMKISCKATGYTFSSYWIDWVKQRPGHGLEWIGEILPGSGDTNYNENFKGKAAFTADTSSNTAYMQLTSLTSEDSAVFYCARGGRYHGQGFFDYWGQGTTLTVSS
VL: IQMTQSPASLSASVGETVTITCRPSENVHIYLAWYQQKQGKSPQLLVYNAKTLADGVPSRFSGSASGTQFSLKINSLQPEDFGSYYCQHFWSIPYTFGGGTKLEIK
notes: recombinant Fab of m8
B4: Fab 2B12 (Fab, V domains shown)
V domain 1: EVQLVESGGGLVQPKGSLKLSCAASGFIFNTYAMHWVRQAPGKGLEWVARIRSKSSNYATYYADSVKDRFTISRDDSQSMLYLQMNNLKTEDTAMYYCVREGGYYFDYWGQGTTLTFSA
V domain 2: DIVMSQSPSSLAVSVGEKVTMSCKSSQSLLHVSNQKNYLAWYQQKPGQSPKLLIYWASTRESGVPDRFTGSGSGTDFTLTISSVKAEDLAVYYCQQYYSYPWPFGGGTKLKSN
notes: recombinant Fab of m9
B5: Fab 4F6 (Fab, V domains shown)
VH: QVQLQQSGAELVKPGASVKLSCKASGYTFTSNWMHWVKQRPGRGLEWIGRIDPNSGGTKYNEKFKSKATLTVDKPSSTAYMQLSSLTSEDSAVYYCARDGHYAYFDVWAPGTTVTVSS
VL: DIVMTQSQKFMSTSVGDRVSVTCKASQNVGTTVAWYQQKPGQSPNALIYSASYRYTGVPDRFTGSGSGTDFTLTISNVQSEDLAEYFCQQYNRYPWTFGGGTKLEIK
notes: recombinant Fab of m13
B6: Fab 1A9 (Fab, V domains shown)
VH: QVQLQQSGAELVRPGTSVKISCKASGYTFTNYWLGWVKQRPGHGLEWIGDIYRGGGYTNYNEKFKGKATLTADTSSSTAYMQLSSLTSEDSAVYFCATRDGYFDYWGQGTTLTVSS
VL: DIQMTQSSSSFSVSLGDRTTITCKASEDIYNRLAWFQQKPGNAPRLLISGATSLETGVPSRFSGSGSGKDYTLSITSLQTEDVATYYCQQYWSSPWTFGGGTKLEIK
notes: recombinant Fab of m7
B7: Fab 1F2 (Fab, V domains shown)
VH: EVQLQQSGPELVKPGVSLKISCKASGYSFTDYTMNWVKQSHGKNLEWIGLINPYIGGTRYNQKFKGKATLTVDKSSSTAYLELLSLTSEDSAVYYCARFSGSSNRAMDYWGQGTSVTVSS
VL: DIQMTQSPASLSASVGETVTITCGASENIYGALNWYQRKQGKSPQLLIYGATNLADGMSSRFSGSGSARQYSLKISSLHPDDVATYYCQNVLSIPWTFGGGTKLEIK
notes: recombinant Fab of m12
B8: Fab 1F2 (Fab, V domains shown)
VH: B7 VH
VL: B7 VL
B9: Fab 1H1 (Fab, V domains shown)
VH: B3 VH
VL: B3 VL
B10: Fab 2B12 (Fab, V domains shown)
V domain 1: B4 V domain 1
V domain 2: B4 V domain 2
B11: Fab 4F6 (Fab, V domains shown)
VH: B5 VH
VL: B5 VL

Molecular target: T1, prefusion Hendra virus (HeV) F (Hendra virus, reference strain …, stabilised)
T1 chain: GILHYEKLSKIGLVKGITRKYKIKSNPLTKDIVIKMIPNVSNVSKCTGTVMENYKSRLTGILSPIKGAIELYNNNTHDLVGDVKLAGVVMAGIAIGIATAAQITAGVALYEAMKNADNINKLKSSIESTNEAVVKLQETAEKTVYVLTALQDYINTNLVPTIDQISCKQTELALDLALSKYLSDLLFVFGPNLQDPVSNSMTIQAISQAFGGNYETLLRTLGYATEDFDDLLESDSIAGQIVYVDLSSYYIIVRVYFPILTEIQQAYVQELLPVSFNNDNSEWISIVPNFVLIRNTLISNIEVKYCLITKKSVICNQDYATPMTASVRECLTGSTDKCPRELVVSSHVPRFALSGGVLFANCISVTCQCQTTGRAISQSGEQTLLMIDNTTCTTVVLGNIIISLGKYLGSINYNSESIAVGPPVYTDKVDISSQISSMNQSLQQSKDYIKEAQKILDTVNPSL
Assay: BLI
Details: both partners purified

Binder	binding result
B1	binds
B2	binds
B3	binds
B4	binds
B5	binds
B6	binds
B7	binds

Molecular target: T2, prefusion Hendra virus (HeV) F protein (Hendra virus, reference strain …)
T2 chain: T1 chain
Assay: BLI
Details: both partners purified

Binder	binding result
B8	binds
B9	binds
B10	binds
B11	binds
